From PMC7081908
Several values for one entry are separate records, joined by “and”; a condition that tells them apart may be missing. Identical values can stand only once.

Target: IgG-CD4 protein (fusion protein of human CD4 domains 1 and 2 with human IgG1 Fc at the C terminus) (human)
Assay: BLI; Octet QKe; IgG-CD4 loaded onto protein G sensors at 20 ug/ml in ForteBio kinetics buffer; serial dilutions of gp120 (600 nM to 0.4 nM) in solution; Kd = koff/kon, 1:1 fitting model; two GMP lots of each gp120

Substance	Kd
GMP-grade gp120 protein, HIV-1 clade AE consensus	24.6 nM and 18.4 nM
GMP-grade gp120 protein, HIV-1 clade C isolate 93MW965.26 (natural protein)	157 nM and 115 nM
GMP-grade gp120 protein, HIV-1 clade B isolate JRFL (natural protein)	7.44 nM and 4.87 nM
